Data taken from patent US20230056230A1.

Assays:
[1] = target: PD-1 and LAG-3 on CD4+ and CD8+ cells of patients' peripheral blood; assay: receptor occupancy by flow cytometry on patients' whole blood, CD4+ cells; Emax model
[2] = target: PD-1 and LAG-3 on CD4+ and CD8+ cells of patients' peripheral blood; assay: receptor occupancy by flow cytometry on patients' whole blood, CD8+ cells; Emax model
[3] = target: PD-1 and LAG-3 on CD4+ and CD8+ cells of patients' peripheral blood; assay: receptor occupancy by flow cytometry on patients' whole blood, CD4+ cells; Emax model of % binding against DART-I concentration
[4] = target: PD-1 and LAG-3 on CD4+ and CD8+ cells of patients' peripheral blood; assay: receptor occupancy by flow cytometry on patients' whole blood, CD8+ cells; Emax model of % binding against DART-I concentration

concentration at which 90% of max RO is achieved [1]: 0.6 µg/mL
concentration at which 90% of max RO is achieved [2]: 0.1 µg/mL
EC50 [3]: 0.045 µg/mL
EC50 [4]: 0.011 µg/mL
B1: DART-I (bispecific antibody, human IgG4 S228P)
chain 1: DIQMTQSPSSLSASVGDRVTITCRASQDVSSVVAWYQQKPGKAPKLLIYSASYRYTGVPSRFSGSGSGTDFTLTISSLQPEDFATYYCQQHYSTPWTFGGGTKLEIKGGGSGGGGQVQLVQSGAEVKKPGASVKVSCKASGYSFTSYWMNWVRQAPGQGLEWIGVIHPSDSETWLDQKFKDRVTITVDKSTSTAYMELSSLRSEDTAVYYCAREHYGTSPFAYWGQGTLVTVSSGGCGGGEVAACEKEVAALEKEVAALEKEVAALEKESKYGPPCPPCPAPEFLGGPSVFLFPPKPKDTLYITREPEVTCVVVDVSQEDPEVQFNWYVDGVEVHNAKTKPREEQFNSTYRVVSVLTVLHQDWLNGKEYKCKVSNKGLPSSIEKTISKAKGQPREPQVYTLPPSQEEMTKNQVSLTCLVKGFYPSDIAVEWESNGQPENNYKTTPPVLDSDGSFFLYSRLTVDKSRWQEGNVFSCSVMHEALHNHYTQKSLSLSLG
chain 2: EIVLTQSPATLSLSPGERATLSCRASESVDNYGMSFMNWFQQKPGQPPKLLIHAASNQGSGVPSRFSGSGSGTDFTLTISSLEPEDFAVYFCQQSKEVPYTFGGGTKVEIKGGGSGGGGQVQLVQSGAEVKKPGASVKVSCKASGYTFTDYNMDWVRQAPGQGLEWMGDINPDNGVTIYNQKFEGRVTMTTDTSTSTAYMELRSLRSDDTAVYYCAREADYFYFDYWGQGTTLTVSSGGCGGGKVAACKEKVAALKEKVAALKEKVAALKE
